Data as given in article PMC4347215 (Nature Communications, 2015).

B1: monoclonal antibody CD6 (whole IgG) (antibody, V domains shown)
VH: QVKLQESGGGLVQPKGSLKLSCAASGFTFNTYAMNWVRQAPGKGLEWVARIRSKSNNYATFYADSVKDRFTISRDDSQSMLYLQMHNLKTDDTAMYYCVRPSIYYYASGYLDVWGAGTTVTVSS
VL: QIVLSQSPAILSASPGEKVTMTCRTSSSVSYMHWYQQKPGSSPKPWIYATSNLASGVPFRFSGSGSGTSYSLTISRVEAEDAATYYCQQWNSNPPTFGGGTKLEIK
notes: copies: 2 + 2
B2: CD6 Fab (Fab, V domains shown)
VH: B1 VH
VL: B1 VL
B3: CD6 Fab2 (other)
VH: B1 VH
VL: B1 VL
notes: F(ab')2 fragment; copies: 2 + 2

Key:
[1] = molecular target: recombinant CA/09 NA (neuraminidase of A/California/07/2009) (Influenza A virus A/California/07/2009 …, UniProt C3W5S3); assay: BLI; conditions: both partners purified
[2] = molecular target: NA (CA/09) as antigen of the ELISA of Supplementary Fig. 5 (Influenza A virus A/California/07/2009 …, UniProt C3W6G3, strain); assay: ELISA
[3] = molecular target: recombinant CA/09 NA, thrombin-cleaved (His-tag depleted) (influenza A virus A/California/07/2009 …, UniProt C3W5S3, N-linked glycans seen at Asn88, Asn146 and Asn235); assay: crystal structure; conditions: both partners purified

Row | Binder | Kd [1] [nM] | binding result [2] | stoichiometry N [3] [Fabs per NA tetramer]
1 | B1 | ~95 | binds | –
2 | B2 | – | binds | 4
3 | B3 | – | binds | –
